Laboratory results taken from US20260242478A1 (published 2026).

Experiments:
Anti-PSMA Fab [1] = molecular target: T1, Anti-PSMA Fab (biotinylated (site not stated)); experiment: clonal phage ELISA on biotinylated PSMA Fab captured on neutravidin plate, anti-M13 HRP detection
T1 construct: also called 006 PSMA Fab

Anti-PSMA Fab [2] = molecular target: T1, Anti-PSMA Fab; experiment: clonal phage ELISA on captured PSMA Fab, wells pre-incubated with PSMA antigen as competitor, anti-M13 HRP detection;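 note: crude clonal phage supernatants added, with no intervening wash, to wells preincubated with PSMA antigen in blocking buffer, incubated briefly, then washed before detecting bound phage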
Description: (§1) Clonal phage were harvested as crude supernatants and screened via standard ELISAs. […] Prior to the addition of clonal phage. wells were incubated with blocking buffer and PSMA antigen or blocking buffer alone. Without washing or aspirating, clonal phage supernatants were then added to the wells and incubated for a short time. Wells were then washed followed by detection of bound phage using a horse radish conjugated anti-M13 antibody.

Anti-PSMA Fab [3] = molecular target: T2, Anti-PSMA Fab; experiment: phage binding ELISA on captured anti-PSMA Fab; wells pre-incubated with PSMA antigen as competitor; anti-M13-HRP detection
T2 construct: Biotinylated and captured on neutravidin coated plates in the phage ELISA; also called 006 PSMA Fab
Description: as §1

Anti-PSMA Fab [4] = molecular target: T2, Anti-PSMA Fab; experiment: phage binding ELISA; clonal phage supernatant on biotinylated anti-PSMA Fab captured on neutravidin plate; anti-M13-HRP detection
Description: as §1

PSMA Fab (006 PSMA Fab) [5] = molecular target: T3, PSMA Fab (006 PSMA Fab); experiment: clonal phage ELISA on captured PSMA Fab, wells pre-incubated with PSMA antigen as competitor
T3 construct: also called Anti-PSMA Fab
Description: as §1

PSMA Fab (006 PSMA Fab) [6] = molecular target: T3, PSMA Fab (006 PSMA Fab); experiment: clonal phage ELISA on biotinylated PSMA Fab captured on neutravidin, anti-M13 HRP detection;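 note: crude clonal phage supernatants added to wells pretreated with PSMA antigen in blocking buffer or with blocking buffer only, then briefly incubated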
Description: as §1

PSMA Fab [7] = molecular target: T4, PSMA Fab (biotinylated (site not stated)); experiment: clonal phage ELISA on captured PSMA Fab, competitor PSMA antigen pre-incubated
T4 construct: Biotinylated PSMA Fab captured on neutravidin coated plates in the phage ELISA; also called Anti-PSMA Fab; 006 PSMA Fab

PSMA Fab [8] = molecular target: T4, PSMA Fab; experiment: clonal phage ELISA on biotinylated PSMA Fab captured on neutravidin, anti-M13 HRP detection;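 note: crude clonal phage supernatants added to wells pretreated with PSMA antigen in blocking buffer or with blocking buffer only, then briefly incubated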
Description: as §1

| Binder | Phage binding ELISA signal, Anti-PSMA Fab with PSMA antigen (Anti-PSMA Fab [3]) | Phage binding ELISA signal, Anti-PSMA Fab (Anti-PSMA Fab [4]) | Phage binding ELISA signal, Anti-PSMA Fab in presence of PSMA (PSMA Fab (006 PSMA Fab) [5]) | Phage binding ELISA signal, Anti-PSMA Fab (PSMA Fab (006 PSMA Fab) [6]) | other results |
| --- | --- | --- | --- | --- | --- |
| VDRLCVPNWMCMGL (Clonal phage of the Peptide-180 library) [Phage-3552] | – | – | – | – | Phage binding ELISA signal, Anti-PSMA Fab (Anti-PSMA Fab [1]): 1.64; Phage binding ELISA signal, Anti-PSMA Fab with PSMA antigen (Anti-PSMA Fab [2]): 0.072 |
| QLAMCVPLWMCYGF (Tested as clonal phage supernatant) [Phage-3580 (Peptide-180 library clone)] | 0.092 | 1.62 | – | – | – |
| EHRICVPQWMCTGF (Peptide-180 library clone, tested as clonal phage supernatant with the peptide fused to pIII of the bacteriophage) [Phage-3563] | – | – | 0.0676 | 1.64 | – |
| EDIKCIPRWMCEGF (Peptide-180 library clone, tested as clonal phage supernatant with the peptide fused to pIII of the bacteriophage) [Phage-3574] | – | – | 0.0923 | 1.62 | – |
| VEPACVPLWMCFGL (Clonal phage of the Peptide-180 library) [Phage-3558] | – | – | – | – | Phage binding ELISA signal, Anti-PSMA Fab (Anti-PSMA Fab [1]): 1.64; Phage binding ELISA signal, Anti-PSMA Fab with PSMA antigen (Anti-PSMA Fab [2]): 0.0619 |
| LAVRCIPEWMCYGL (Clonal phage of the Peptide-180 library) [Phage-3555] | – | – | – | – | Phage binding ELISA signal, Anti-PSMA Fab (Anti-PSMA Fab [1]): 1.64; Phage binding ELISA signal, Anti-PSMA Fab with PSMA antigen (Anti-PSMA Fab [2]): 0.0644 |
| HEPVCRPEWMCQGF (Tested as clonal phage supernatant) [Phage-3587 (Peptide-180 library clone)] | 0.0717 | 1.6 | – | – | – |
| MNIMCRPVWMCTGL (Clonal phage of the Peptide-180 library) [Phage-3549] | – | – | – | – | Phage binding ELISA signal, Anti-PSMA Fab (Anti-PSMA Fab [1]): 1.65; Phage binding ELISA signal, Anti-PSMA Fab with PSMA antigen (Anti-PSMA Fab [2]): 0.0993 |
| VEKMCKPAWMCNVF [Phage-3592] | – | – | – | – | Phage binding ELISA signal, Anti-PSMA Fab with PSMA antigen (PSMA Fab [7]): 0.0777; Phage binding ELISA signal, Anti-PSMA Fab (PSMA Fab [8]): 1.6 |
| DDIRCEPIWMCTGF (Peptide-180 library clone, tested as clonal phage supernatant with the peptide fused to pIII of the bacteriophage) [Phage-3562] | – | – | 0.0657 | 1.64 | – |
| ESHLCRPAWMCTGF (Tested as clonal phage supernatant) [Phage-3588 (Peptide-180 library clone)] | 0.089 | 1.6 | – | – | – |
| MERWCIPVWMCQGL (Clonal phage of the Peptide-180 library) [Phage-3560] | – | – | – | – | Phage binding ELISA signal, Anti-PSMA Fab (Anti-PSMA Fab [1]): 1.64; Phage binding ELISA signal, Anti-PSMA Fab with PSMA antigen (Anti-PSMA Fab [2]): 0.0734 |
| VVPLCVPMWMCSPM (Clonal phage of the Peptide-180 library) [Phage-3557] | – | – | – | – | Phage binding ELISA signal, Anti-PSMA Fab (Anti-PSMA Fab [1]): 1.64; Phage binding ELISA signal, Anti-PSMA Fab with PSMA antigen (Anti-PSMA Fab [2]): 0.0867 |
| GMGMCVPTWMCTGM (Tested as clonal phage supernatant) [Phage-3579 (Peptide-180 library clone)] | 0.0797 | 1.62 | – | – | – |
| TFMRCEPVWMCDGF (Tested as clonal phage supernatant) [Phage-3585 (Peptide-180 library clone)] | 0.0709 | 1.61 | – | – | – |
| PDPLCVPNWMCIGL [Phage-3593] | – | – | – | – | Phage binding ELISA signal, Anti-PSMA Fab with PSMA antigen (PSMA Fab [7]): 0.0686; Phage binding ELISA signal, Anti-PSMA Fab (PSMA Fab [8]): 1.6 |
| AWMRCEPAWMCVGF (Peptide-180 library clone, tested as clonal phage supernatant with the peptide fused to pIII of the bacteriophage) [Phage-3573] | – | – | 0.0695 | 1.62 | – |
| QSMMCIPSWMCVGF (Clonal phage of the Peptide-180 library) [Phage-3556] | – | – | – | – | Phage binding ELISA signal, Anti-PSMA Fab (Anti-PSMA Fab [1]): 1.64; Phage binding ELISA signal, Anti-PSMA Fab with PSMA antigen (Anti-PSMA Fab [2]): 0.0679 |
| YEKLCEPRWMCDGF (Tested as clonal phage supernatant) [Phage-3577 (Peptide-180 library clone)] | 0.0657 | 1.62 | – | – | – |
| VAQWCTPSWMCDGF (Peptide-180 library clone, tested as clonal phage supernatant with the peptide fused to pIII of the bacteriophage) [Phage-3569] | – | – | 0.0794 | 1.62 | – |
| ETFTCKPPWMCIGF (Tested as clonal phage supernatant) [Phage-3576 (Peptide-180 library clone)] | 0.104 | 1.62 | – | – | – |
| VVNFCKPQWMCSGF (Clonal phage of the Peptide-180 library) [Phage-3561] | – | – | – | – | Phage binding ELISA signal, Anti-PSMA Fab (Anti-PSMA Fab [1]): 1.64; Phage binding ELISA signal, Anti-PSMA Fab with PSMA antigen (Anti-PSMA Fab [2]): 0.0682 |
| SPSYCVPKWMCVGF (Peptide-180 library clone, tested as clonal phage supernatant with the peptide fused to pIII of the bacteriophage) [Phage-3564] | – | – | 0.0712 | 1.64 | – |

| Binder | Phage binding ELISA signal, Anti-PSMA Fab with PSMA antigen (Anti-PSMA Fab [3]) | Phage binding ELISA signal, Anti-PSMA Fab (Anti-PSMA Fab [4]) | Phage binding ELISA signal, Anti-PSMA Fab in presence of PSMA (PSMA Fab (006 PSMA Fab) [5]) | Phage binding ELISA signal, Anti-PSMA Fab (PSMA Fab (006 PSMA Fab) [6]) | other results |
| --- | --- | --- | --- | --- | --- |
| TTLMCTPQWMCDGF (Tested as clonal phage supernatant) [Phage-3589 (Peptide-180 library clone)] | 0.0718 | 1.6 | – | – | – |
| PSPICRPEWMCVWL (Tested as clonal phage supernatant) [Phage-3584 (Peptide-180 library clone)] | 0.0954 | 1.61 | – | – | – |
| FIAQCQPTWMCTGF (Peptide-180 library clone, tested as clonal phage supernatant with the peptide fused to pIII of the bacteriophage) [Phage-3575] | – | – | 0.076 | 1.62 | – |
| YDVVCKPAWMCNGF (Tested as clonal phage supernatant) [Phage-3578 (Peptide-180 library clone)] | 0.0676 | 1.62 | – | – | – |
| VDKACTPAWMCTGF (Peptide-180 library clone, tested as clonal phage supernatant with the peptide fused to pIII of the bacteriophage) [Phage-3570] | – | – | 0.0716 | 1.62 | – |
| ESYTCVPMWMCTGF (Tested as clonal phage supernatant) [Phage-3582 (Peptide-180 library clone)] | 0.088 | 1.61 | – | – | – |
| LGHWCSPTWMCMGF (Tested as clonal phage supernatant) [Phage-3581 (Peptide-180 library clone)] | 0.11 | 1.62 | – | – | – |
| EELMCRPVWMCLGF [Phage-3591] | – | – | – | – | Phage binding ELISA signal, Anti-PSMA Fab with PSMA antigen (PSMA Fab [7]): 0.0789; Phage binding ELISA signal, Anti-PSMA Fab (PSMA Fab [8]): 1.6 |
| VPTLCKPSWMCYGF (Peptide-180 library clone, tested as clonal phage supernatant with the peptide fused to pIII of the bacteriophage) [Phage-3572] | – | – | 0.0941 | 1.62 | – |
| VSTMCVPEWMCGGF (Peptide-180 library clone, tested as clonal phage supernatant with the peptide fused to pIII of the bacteriophage) [Phage-3566] | – | – | 0.122 | 1.63 | – |
| TPPFCIPKWMCQGF (Clonal phage of the Peptide-180 library) [Phage-3548] | – | – | – | – | Phage binding ELISA signal, Anti-PSMA Fab (Anti-PSMA Fab [1]): 1.65; Phage binding ELISA signal, Anti-PSMA Fab with PSMA antigen (Anti-PSMA Fab [2]): 0.117 |
| ELLKCVPQWMCTGF (Peptide-180 library clone, tested as clonal phage supernatant with the peptide fused to pIII of the bacteriophage) [Phage-3565] | – | – | 0.126 | 1.63 | – |
| EMPLCIPQWMCGGF (Peptide-180 library clone, tested as clonal phage supernatant with the peptide fused to pIII of the bacteriophage) [Phage-3571] | – | – | 0.0691 | 1.62 | – |
| MERMCVPSWMCTGF (Clonal phage of the Peptide-180 library) [Phage-3550] | – | – | – | – | Phage binding ELISA signal, Anti-PSMA Fab (Anti-PSMA Fab [1]): 1.64; Phage binding ELISA signal, Anti-PSMA Fab with PSMA antigen (Anti-PSMA Fab [2]): 0.089 |
| DAMLCRPSWMCDGF (Peptide-180 library clone, tested as clonal phage supernatant with the peptide fused to pIII of the bacteriophage) [Phage-3567] | – | – | 0.0871 | 1.62 | – |
| IEKVCVPAWMCMGF (Clonal phage of the Peptide-180 library) [Phage-3551] | – | – | – | – | Phage binding ELISA signal, Anti-PSMA Fab (Anti-PSMA Fab [1]): 1.64; Phage binding ELISA signal, Anti-PSMA Fab with PSMA antigen (Anti-PSMA Fab [2]): 0.238 |
| NLGWCVPVWMCEGF (Tested as clonal phage supernatant) [Phage-3586 (Peptide-180 library clone)] | 0.101 | 1.61 | – | – | – |
| NIMRCQPSWMCTGF (Tested as clonal phage supernatant) [Phage-3583 (Peptide-180 library clone)] | 0.064 | 1.61 | – | – | – |
| TYFRCEPSWMCTGL (Clonal phage of the Peptide-180 library) [Phage-3559] | – | – | – | – | Phage binding ELISA signal, Anti-PSMA Fab (Anti-PSMA Fab [1]): 1.64; Phage binding ELISA signal, Anti-PSMA Fab with PSMA antigen (Anti-PSMA Fab [2]): 0.073 |
| AGMMCTPPWMCFGF (Clonal phage of the Peptide-180 library) [Phage-3554] | – | – | – | – | Phage binding ELISA signal, Anti-PSMA Fab (Anti-PSMA Fab [1]): 1.64; Phage binding ELISA signal, Anti-PSMA Fab with PSMA antigen (Anti-PSMA Fab [2]): 0.0664 |
| MPGACVPLWMCYGF [Phage-3590] | – | – | – | – | Phage binding ELISA signal, Anti-PSMA Fab with PSMA antigen (PSMA Fab [7]): 0.0685; Phage binding ELISA signal, Anti-PSMA Fab (PSMA Fab [8]): 1.6 |
| PEAYCVPSWMCTGF (Peptide-180 library clone, tested as clonal phage supernatant with the peptide fused to pIII of the bacteriophage) [Phage-3568] | – | – | 0.0764 | 1.62 | – |
